In publication PMC11403483:
pKd: −log10 of the molar value.

How the values were obtained:
[1] = molecular target: recombinant PSG1 (pregnancy-specific glycoprotein 1) (human) (UniProt P11464); assay: SPR
[2] = molecular target: recombinant murine Psg23-myc-His (mouse); assay: BLI

Chain of recombinant mouse galectin 9 (O08573 whole entry): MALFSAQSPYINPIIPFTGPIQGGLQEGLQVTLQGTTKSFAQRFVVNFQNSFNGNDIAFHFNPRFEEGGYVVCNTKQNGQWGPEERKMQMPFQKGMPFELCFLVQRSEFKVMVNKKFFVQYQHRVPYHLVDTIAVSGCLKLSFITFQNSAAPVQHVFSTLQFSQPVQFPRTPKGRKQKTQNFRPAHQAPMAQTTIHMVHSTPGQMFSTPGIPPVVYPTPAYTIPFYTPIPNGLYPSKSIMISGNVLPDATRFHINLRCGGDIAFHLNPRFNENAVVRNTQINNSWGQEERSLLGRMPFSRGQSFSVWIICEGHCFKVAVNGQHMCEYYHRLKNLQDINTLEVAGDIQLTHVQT
Chain of recombinant PSG1 (pregnancy-specific glycoprotein 1) (human) (P11464 35-419): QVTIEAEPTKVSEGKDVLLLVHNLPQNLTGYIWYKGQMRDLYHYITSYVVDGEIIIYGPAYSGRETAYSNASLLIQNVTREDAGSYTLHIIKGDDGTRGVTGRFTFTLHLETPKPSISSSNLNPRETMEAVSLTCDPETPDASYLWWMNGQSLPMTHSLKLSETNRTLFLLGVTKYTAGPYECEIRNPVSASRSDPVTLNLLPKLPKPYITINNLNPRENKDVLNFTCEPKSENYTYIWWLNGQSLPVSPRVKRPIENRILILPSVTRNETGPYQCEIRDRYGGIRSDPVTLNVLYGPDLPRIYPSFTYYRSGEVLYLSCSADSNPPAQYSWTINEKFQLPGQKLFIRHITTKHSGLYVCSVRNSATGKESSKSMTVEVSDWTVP

**Q.** With “GAL-9 C-terminal carbohydrate recognition domain (domain or fragment)” as the substance, how does the pKd [1] read?
**A.** 5.77

**Q.** And the koff [1]?
**A.** 0.00415 s⁻¹

**Q.** Which results are given for “GAL-9 N-terminal carbohydrate recognition domain (domain or fragment)”?
**A.** pKd [1]: 2.24; koff [1]: 0.0106 s⁻¹

**Q.** “recombinant mouse galectin 9 (from UniProt O08573 1-353) (natural protein)” was tested. Which pKd [2] did it give?
**A.** 8.64

**Q.** And the koff [2]?
**A.** 0.00635 s⁻¹

**Q.** And the kon [2]?
**A.** 2.79e+06 M⁻¹ s⁻¹
